This note sets out measurements from paper PMC3669275.

The term Kd denotes a measure of binding affinity in units of concentration.

Assay [1] addresses HIV-1 HXB2 Env (gp160; gp41) expressed on CHO-Env cells (HIV-1 HXB2) (UniProt P04578).
For assay [2] the target is unchanged. This is another data set of the same source.
The target in assay [3] is 3NC, recombinant protein with a triplicate N36-GGSGG-C34 (HIV-1). Description: SPR; BIACORE X; 3NC (100 µg/ml) amine-coupled to a CM5 chip; C60 or POB1 (333–461) injected at 20 µl/min; 10 mM HEPES pH 7.4, 0.15 M NaCl, 3.4 mM EDTA, 0.005% P20. On the technique in general: Surface plasmon resonance follows binding to a sensor surface in real time, without labels.

Consider “C60, recombinant POB1 (462–521) (domain or fragment)”, for which the IC50 of inhibition of HIV-1 Env-mediated cell-cell fusion (syncytium formation, CHO-Env with 3T3.T4.CXCR4 cells) in assay [1] stood at 1.09 µM. In assay [2], this substance yielded an IC50 of inhibition of infection of MT-2 cells by HIV-1 IIIB (X4-tropic), p24 ELISA of 15.3 µM and an IC50 of inhibition of infection of TZM-bl cells by HIV-1 Bal (R5-tropic; the Env is that of strain Bal), luciferase of 9.21 µM. In addition, in assay [3], the Kd was determined as 0.0155 µM.
